According to the RNAGym collection of RNA variant scans (doi:10.7554/elife.80360):

B1: HDV Ribozyme (parent)
chain: GGCCGGCAUGGUCCCAGCCUCCUCGCUGGCGCCGGCUGGGCAACAUUCCGAGGGGACCGUCCCCUCGGUAAUGGCGAAUGGGACCCA

Variants of: B1
Assay: self-cleavage, relative activity (ratio to wild type); higher = more cleavage; co-transcriptional

Variant | self-cleavage
C19U C75A | 0.0665
U20A U60C | 0
G39A G52C | 0.394
C19G G50U | 0.108
G29C G31A | 0.0875
G59U C86A | 0.855
C7G G34A | 0.115
C33U G55A | 0.972
C24G A87C | 0.128
U20C C26A | 0.104
U20C U60A | 0.115
C32U G74A | 0.459
A45C G55C | 0.48
U23G C48A | 0.807
U20G A43U | 0.107
G2U G82A | 0.0189
C4G G55U | 0.376
C44A C57G | 0.684
G1A A43G | 0.0875
C48U A78U | 0.298
G2U C66G | 0.0198
C4U U47G | 0.88
G52C A78C | 0.0723
G2C G54A | 0.0777

Variant | self-cleavage
U65A G74A | 0.489
G67A C75A | 0.185
C15G G39C | 0.0723
C21G A71C | 0.0449
G38A A87C | 0.0881
C44G C48U | 0.517
G2C G10C | 0
G29U C58U | 0.0292
C36A G76U | 0.119
U9G U37A | 0
G10C C61U | 0.578
C64A G80A | 0.611
G5C G39A | 0
C32A A77C | 0.219
U9A G40U | 0.897
C4G C33A | 0
G2C A51G | 0.0831
C13A C24A | 0
G2C G28U | 0.014
C41A U47A | 0.689
C4U C19G | 0.0268
C49A G59C | 1.08
C4A G76A | 0.208
G40C | 0.299

Variant | self-cleavage
C3A G29C | 0
G11A G80A | 0.197
G35A G67U | 0.361
U37A A87U | 0.325
C3U C62A | 0.973
G1A A51G | 0
G34A U46A | 0.121
C7U C62U | 0.831
G25U A42C | 0.135
G50U G68C | 0.465
C63U C85A | 0.958
U27G G59A | 0.855
C33U C48G | 1.05
G28U A42U | 0.138
A70G G81A | 0.378
A16U U47A | 0.639
U27A G73C | 0.0639
C7G G82A | 0.113
G2A G50C | 0.205
C26G G68U | 0.686
C4A C64U | 0.277
G55C C66A | 0.87
C21U G80C | 0.151
C26A G67A | 1.01

Variant | self-cleavage
C66U G76C | 0.965
C24A C49A | 0.65
G40U C61U | 0.631
C14G G80A | 0.346
G34A U79C | 0.0773
C58U C86U | 0.969
C26G A51U | 0.95
A16U U27C | 0.587
C32G G54A | 0.0898
G40U C64G | 0.446
A16G C48G | 0.914
G73C A83U | 0.348
U12C C19G | 0.0723
G29U C63A | 0.106
C7U A43U | 0.475
G40U C62A | 0.709
G6C C41G | 0
C19U U69A | 0.212
C58U G82C | 0.386
G28U C32G | 0.133
G17U A87C | 0.389
A42C C63G | 0.208
C41G C64U | 0.853
C14G G55A | 0.59

Variant | self-cleavage
C32A A56C | 0.293
G53U C64G | 0.62
C32U G68A | 0.888
G55U G76C | 1.08
A42U G68A | 0.407
G6C G74A | 0.0875
C57U A71U | 1.08
C32G G59U | 0.0519
U37G C41U | 0.156
C49G G53A | 0.475
C22U A43C | 0.0282
C24U C26A | 0.955
G2C C44A | 0.0449
C13U G74C | 0.0627
G6U A77U | 0.158
C14A G38U | 0.182
A8C U60A | 0.831
G82C A87C | 0.28
C13A G40C | 0
A8G C21G | 0.0536
C4G C64A | 0.219
C7G C84U | 0
G1C C14A | 0.0811
G31C G50U | 0.208

Variant | self-cleavage
C57A C63U | 1.12
G68A A77C | 0.155
G25C A71C | 0.0475
G81U C86U | 0.767
U69A A70U | 0.95
G11A G17A | 0.544
A51U A56C | 0.851
G50A U65C | 0.769
C26G C62G | 0.516
A77C U79G | 0.151
A71G A87U | 0.95
C21U C75U | 0.0248
C58A C75U | 0.158
G35A U37C | 0.396
C15A A51G | 0.923
G54U U60A | 0.946
C22A G50C | 0.354
U65C C75A | 0.0489
G1A C13A | 0.0639
U23C U79A | 0.554
G67A G68U | 0.79
G17C C44A | 0
C36A C64A | 0.0405
G2U G74C | 0

Variant | self-cleavage
C7A C30A | 0.0282
G5C C18A | 0.0639
C33G G59A | 0.188
A43G A78C | 0.0415
C7U G25U | 0.203
A45G A77G | 0.867
C63A G76C | 0.976
G38C G80A | 0.131
U20G G76A | 0.214
C14G C15U | 0.111
G29C G73C | 0.095
G10U C85G | 1.03
C18U C58G | 0.778
C66U G68C | 0.753
U47G C66G | 0.831
G17C C86U | 0.237
G82A A87G | 0.342
C48U C66G | 0.658
C4G G54C | 0.213
C64A U69C | 0.782
C14A C24U | 0.0361
G5U G59C | 0.415
C4U C86A | 0.875
